The text below walks through data of patent US20090068214A1.

The assay addresses HLA-A2 on T2 cells, P30376.

B1: HPV 16 E2 69-77 peptide (…) (peptide)
peptide: ALQAIELQL
modifications: not checked
Molecule B1 came in with a peptide concentration at fluorescence index (FI) 0.5 of 50 µM.
